Results as given in the supplement of paper PMC5998384.

Assays:
[1] = system: HeLa Kyoto; assay: solubility change mitosis vs G1/S (difference of NP-40 vs SDS log2 ratios) (log2 ratio difference); higher = more soluble in mitosis
[2] = system: HeLa Kyoto; assay: solubility in G1/S (NP-40 vs SDS abundance) (log2 ratio); higher = more soluble; conditions: cell cycle stage: G1/S
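Throughout, for solubility change mitosis vs G1/S (difference of NP-40 vs SDS log2 ratios): synchronized HeLa Kyoto cells (double thymidine block for G1/S, nocodazole release for mitosis), protein amounts in NP-40 versus SDS lysates quantified by mass spectrometry, three biological replicates.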
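Throughout, for solubility in G1/S (NP-40 vs SDS abundance): HeLa Kyoto cells arrested at G1/S by double thymidine block, proteins quantified by TMT10plex mass spectrometry in mild NP-40 versus SDS extracts, three biological replicates.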

MEPRAAAAGEPEPPAASSSFQARLWKNLQLGVGRSKGGGGGRAGGPERRTADTPSPSPPPPVGTGNAPARGSGAGSRWSGFKKRKQVLDRVFSSSQPNLCCSSPEPLEPGGAGRAEQGSTLRRRIREHLLPAVKGPAAASGAAGGTPPGGRSPDSAPSSSSASSSLSSSPQPPPRGDRARDEGARRQGPGAHLCHQKSSSLPGTACLEQLLEPPPPPAEPARSPAESRAPETGEEHGSSQKIINTAGTSNAEVPLADPGMYQLDITLRRGQSLAARDRGGTSDPYVKFKIGGKEVFRSKIIHKNLNPVWEEKACILVDHLREPLYIKVFDYDFGLQDDFMGSAFLDLTQLELNRPTDVTLTLKDPHYPDHDLGIILLSVILTPKEGESRDVTMLMRKSWKRSSKELSENEVVGSYFSVKSLFWRTCGRPALPVLGFCRAELQNPYCKNVQFQTQSLRLSDLHRKSHLWRGIVSITLIEGRDLKAMDSNGLSDPYVKFRLGHQKYKSKIMPKTLNPQWREQFDFHLYEERGGVIDITAWDKDAGKRDDFIGRCQVDLSALSREQTHKLELQLEEGEGHLVLLVTLTASATVSISDLSVNSLEDQKEREEILKRYSPLRIFHNLKDVGFLQVKVIRAEGLMAADVTGKSDPFCVVELNNDRLLTHTVYKNLNPEWNKVFTFNIKDIHSVLEVTVYDEDRDRSADFLGKVAIPLLSIQNGEQKAYVLKNKQLTGPTKGVIYLEIDVIFNAVKASLRTLIPKEQKYIEEENRLSKQLLLRNFIRMKRCVMVLVNAAYYVNSCFDWDSPPRSLAAFVLFLFVVWNFELYMIPLVLLLLLTWNYFLIISGKDNRQRDTVVEDMLEDEEEEDDKDDKDSEKKGFINKIYAIQEVCVSVQNILDEVASFGERIKNTFNWTVPFLSWLAIVALCVFTAILYCIPLRYIVLVWGINKFTKKLRSPYAIDNNELLDFLSRVPSDVQVVQYQELKPDPSHSPYKRKKNNLG [MCTP1]
solubility change mitosis (log2) [1]: -0.196 | solubility in G1/S (log2) [2]: 0.0529

MAKAGDKSSSSGKKSLKRKAAAEELQEAAGAGDGATENGVQPPKAAAFPPGFSISEIKNKQRRHLMFTRWKQQQRKEKLAAKKKLKKEREALGDKAPPKPVPKTIDNQRVYDETTVDPNDEEVAYDEATDEFASYFNKQTSPKILITTSDRPHGRTVRLCEQLSTVIPNSHVYYRRGLALKKIIPQCIARDFTDLIVINEDRKTPNGLILSHLPNGPTAHFKMSSVRLRKEIKRRGKDPTEHIPEIILNNFTTRLGHSIGRMFASLFPHNPQFIGRQVATFHNQRDYIFFRFHRYIFRSEKKVGIQELGPRFTLKLRSLQKGTFDSKYGEYEWVHKPREMDTSRRKFHL [RPF1]
solubility change mitosis (log2) [1]: 0.774 | solubility in G1/S (log2) [2]: -1.77

MESETEPEPVTLLVKSPNQRHRDLELSGDRGWSVGHLKAHLSRVYPERPRPEDQRLIYSGKLLLDHQCLRDLLPKQEKRHVLHLVCNVKSPSKMPEINAKVAESTEEPAGSNRGQYPEDSSSDGLRQREVLRNLSSPGWENISRPEAAQQAFQGLGPGFSGYTPYGWLQLSWFQQIYARQYYMQYLAATAASGAFVPPPSAQEIPVVSAPAPAPIHNQFPAENQPANQNAAPQVVVNPGANQNLRMNAQGGPIVEEDDEINRDWLDWTYSAATFSVFLSILYFYSSLSRFLMVMGATVVMYLHHVGWFPFRPRPVQNFPNDGPPPDVVNQDPNNNLQEGTDPETEDPNHLPPDRDVLDGEQTSPSFMSTAWLVFKTFFASLLPEGPPAIAN [HERPUD1]
solubility change mitosis (log2) [1]: -0.0685 | solubility in G1/S (log2) [2]: 0.0523

MYO9A
solubility change mitosis (log2) [1]: 0.00755 | solubility in G1/S (log2) [2]: -0.102
